{"source": "patent US20220380438A1", "about": "(OXFORD UNIVERSITY INNOVATION, published 2022)", "binders": {"B1": {"name": "human androgen receptor splice variant 2 (AR2) (receptor)", "chain": "MILWLHSLETARDHVLPIDYYFPPQKTCLICGDEASGCHYGALTCGSCKVFFKRAAEGKQKYLCASRNDCTIDKFRRKNCPSCRLRKCYEAGMTLGARKLKKLGNLKLQEEGEASSTTSPTEETTQKLTVSHIEGYECQPIFLNVLEAIEPGVVCAGHDNNQPDSFAALLSSLNELGERQLVHVVKWAKALPGFRNLHVDDQMAVIQYSWMGLMVFAMGWRSFTNVNSRMLYFAPDLVFNEYRMHKSRMYSQCVRMRHLSQEFGWLQITPQEFLCMKALLLFSIIPVDGLKNQKFFDELRMNYIKELDRIIACKRKNPTSCSRRFYQLTKLLDSVQPIARELHQFTFDLLIKSHMVSVDFPEMMAEIISVQVPKILSGKVKPIYFHTQ", "notes": "Whole AR2 expressed inside transfected HEK293T cells; In the NanoBRET assay it was a fusion with Nanoluc luciferase or HaloTag; For co-IP it was with or without an N-terminal FLAG tag (anti-FLAG M2 beads); also called AR45; AR splice variant 2"}}, "key": {"[1]": {"molecular_target": "T1, human androgen receptor (AR), full length (human, UniProt P10275 1-920)", "T1 construct": "Full-length AR expressed inside transfected HEK293T cells, not on the cell surface; In the NanoBRET assay it was an N- or C-terminal fusion with Nanoluc luciferase or HaloTag; For co-IP the constructs were with or without an N-terminal FLAG tag; Assays were run with or without 10 nM DHT; also called AR1; AR FL", "T1 sequence": "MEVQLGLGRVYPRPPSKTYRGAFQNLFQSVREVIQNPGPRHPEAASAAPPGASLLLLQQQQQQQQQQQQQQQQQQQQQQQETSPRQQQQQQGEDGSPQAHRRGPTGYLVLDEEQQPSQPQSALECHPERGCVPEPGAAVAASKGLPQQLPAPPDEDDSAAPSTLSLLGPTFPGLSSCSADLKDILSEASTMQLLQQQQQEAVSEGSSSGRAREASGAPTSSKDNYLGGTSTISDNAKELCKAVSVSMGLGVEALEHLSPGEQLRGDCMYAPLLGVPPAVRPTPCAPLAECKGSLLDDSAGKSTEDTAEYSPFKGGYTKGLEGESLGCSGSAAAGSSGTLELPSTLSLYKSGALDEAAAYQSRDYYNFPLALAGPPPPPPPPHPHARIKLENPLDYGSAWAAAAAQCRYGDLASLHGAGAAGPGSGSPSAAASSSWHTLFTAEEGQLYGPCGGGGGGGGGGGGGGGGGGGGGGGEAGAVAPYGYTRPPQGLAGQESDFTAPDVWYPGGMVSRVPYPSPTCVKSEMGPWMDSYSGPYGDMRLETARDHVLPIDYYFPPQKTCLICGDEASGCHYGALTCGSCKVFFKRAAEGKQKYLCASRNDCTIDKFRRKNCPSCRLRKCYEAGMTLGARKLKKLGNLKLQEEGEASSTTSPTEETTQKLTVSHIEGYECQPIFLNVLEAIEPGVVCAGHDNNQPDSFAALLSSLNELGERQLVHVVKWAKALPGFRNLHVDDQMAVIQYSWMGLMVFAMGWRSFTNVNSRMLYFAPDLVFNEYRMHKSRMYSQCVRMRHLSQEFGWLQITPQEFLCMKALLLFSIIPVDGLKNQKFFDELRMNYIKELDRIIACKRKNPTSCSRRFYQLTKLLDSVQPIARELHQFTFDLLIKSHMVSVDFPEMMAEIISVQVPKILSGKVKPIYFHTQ", "assay": "NanoBRET, Nluc and HaloTag fusions co-transfected in HEK293T cells", "method": "(§1) To investigate the interaction between AR FL protein and AR2 protein, NanoBRET assay was performed (Promega NanoBRET™ Protein: Protein Interaction System). Briefly, HEK293T cells were co-transfected with a Nanoluc luciferase (Nluc) fusion plasmid and a HaloTag fusion plasmid with Lipofectamine 2000 reagent. Nluc-MDM2 and p53-HaloTag pair was included as the positive control, and Nluc-MDM2 and HaloTag-SMAD4 pair as negative control. At 24 h after transfection, cells were treated with or without 10 nM DHT. HaloTag NanoBRET 618 ligand or DMSO (no-ligand control) was added. At 24 h, NanoBRET Nano-Glo substrate was added and NanoBRET readings at 460 nm and 618 nm were obtained. Mean corrected NanoBRET ratio in milliBRET unit was calculated using the formula: Mean corrected Nanobret ratio, […]"}, "[2]": {"molecular_target": "the molecule itself", "assay": "NanoBRET, Nluc and HaloTag fusions co-transfected in HEK293T cells", "method": "as §1"}}}
{"binder": "B1", "values": [{"measurement": "binding result", "setting": "[1]", "result": "binds"}, {"measurement": "binding result", "setting": "[2]", "result": "binds"}]}
